Data reported in the nanobody polyreactivity screen of Harvey et al. (2022).

Test: yeast display, Sf9 membrane polyspecificity reagent, FACS + sequencing; frameworks hold sequencing errors
Procedure, shortened: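 Using colony PCR, genes from sorted yeast display clones were amplified, then sequenced on MiSeq at 2 × 250 and filtered by CDR length. The clones had been stained with 10% biotinylated, detergent-solubilized Sf9 membrane reagent for 1 hour at 4 °C and sorted by FACS into low and high (top ~1%) gates on anti-HA and streptavidin fluorescence. Polyreactivity labels come from the gate of origin.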

Sequence | polyreactivity (PSR sort gate)
QVQLADSGGGLVQAGGSLRLICAASGSIIRNKAMGWYRQAPGKERELVAAITSTGTGTYYADSVKGRFTISRDYAKNTVYLQMNRVKPEDPAVYYCAVDDEFEFGYWGQGTQVTVSS | low polyreactivity
QDQLVESGGGLVQAGGSLRLICAASGITFLVNAMGWYRQAPGKERELVAGITSGDSTNYADSVKGRFTISRDNAKNTVYLQMNSLKPEDTAVYYCATVLYVGSGGGGILWDDDYWGQGTQVTVSS | low polyreactivity
QVQLVESGGGLVQAGGSLRLSCAASGRIFYKYAMGWYRQAPGKERELVAAISWSGGRTYYADSVKGRFTISRDNAKNTVYLQMNSLKPEDTAVYYCAAVRGGASGGYDYWGQGTQVTVSS | high polyreactivity
QVQLVESGGGLVQAGGSLRLSCAASGRTFPIYAMGWYRQAPGKERELVATITWNDGNTYYADSVKGRFTISRDNAKNTVYLQMNSLKPEDTAVYYCAAKGGWPWHYHYQKNSEYDYWGQGTQVTVSS | low polyreactivity
QVQLVESGGGLVQAGGSLRLSCAASGRTFRYNAMGWYRQAPGKERELVAAISRGANTNYADSVKGRFTISRDNAKNTVYLQMNSLKPEDTAVYYCAAVPGYRFYYWGQGTQVTVSS | high polyreactivity
QVQHVESGGGLVQAGGSLRLSCAASGLIFTTYAMGWYRQAPGKERELVADINSDGSTYYADSVKGRFTISRDNAKNTVYLQMNSLKPEDTAVYYCAASSYYTITYKLIYWRNYDYWGHGTQVTVSS | low polyreactivity
QVQLVESRGRLVQAGGSLRLSCAASGYTFNHNAMGWYRPAPGKETELVAVITPRAGSTYYADSVKGRFTISRDNAKNTVYLQKNSLKPEDSAVYYCNADGFVRRTLRYDYWVQGTQVTVSS | high polyreactivity
QVQLQESGGGLVQAGGSLRLGCAASGNISDAGYMGWYRQAPGKEREFVAAIAAGSTTNYADSVKGRFTISRDNAKNTVYLQMNSLKPEDTAVFYCAVASYARVQFEYWGQGTQVTVNS | low polyreactivity
QVQLVESGGGLVQAGGSLRLICAAYGGIFISYAMGWYRQAPWKERELVAAINYSGGSTNYADSVKGRFTLSRDNAKNTVYLQMNSLKPEDTAVYYCAARSTARYGYWGQGTQVTVSS | low polyreactivity
QVQLVESGGGLVQAGGSLRLSCAASGSTFWYYAMGWYRQAPGKERELVAAIRWSDGSTYYADSVKGRFTISRDNAKNTVYLQMNSLKPEDTAVYYCEYYYWGQGTQVTVSS | low polyreactivity
QVHLVESGGGLVQAGGSLRLRSPASGRTFDDNAMGWYRQAPGKESEMVAGITDNGGGTNYADSVKGRFTISRDNAKNTVYLQMSSLKPEDTAVYYCAADGKLVYVNGYNLYYWGQGTQVTVSS | low polyreactivity
QVQIVESGGGLVQAGGSLRLSCAASGRTLRYYSMGWYRQAPGKERELVAAISGSGGRTYYADSVKGRFTISRDNAKNTVYLQMNSLKPVDTAVYYCAKRYYRTAGDMDYWGLGTQVTVSS | high polyreactivity
QVQLVESGGGLVQAGGSLRLSCAASGSIIVYNTMGWYRQAPGKERGLVAAITVRDDSTYYADSVKGRFTISRDNAKNTVYLQMNSLKPEDTAVYYCNVRKTWYGYSVTGRYDYWGQGTEVTVSS | low polyreactivity
QVQLVESGGGLVQAGGSLRLSCAASGFITWGNAMGWYRQAPGKERELVAAISWRDARTYYADSVKGRFTISRDNAKNTVYLQMNSLKPEDTAVYYCNAVTAYVSRNLRGYRWFDYWGQGTQVTVSS | low polyreactivity
QVPLVESGGGLVQAGGSLRLSCAASGRTFRPYALGWYRQAPGKERELVATISGGGSTYYADSVKGRFTISRDNAKNSLYLQLNSLKPEETAFYYCAKVLTYGGVSYISRMDYWGQATQVTVSS | low polyreactivity
QVQLVESGGGLVQAGGSLRLSCAASGFTFFKYAMGGYRQAPGKERELVAAITRNGGRTYYADSVKGRFTISRDNAKNTVYLHMNSLKPEDTAVYYCNAASVNGGRDFDYWGQGTQVTVSS | high polyreactivity
QVQLVESGGVLDQAGGSLGLSCAASGRTLRKYAMGWYRQAPGKERELVAAITWTGGTTYYADSVKGRFTISRDNAKNTVYLQMNTLKPEDTAFYFCGTVRRYGYGYDYWGQGTQVTVSS | high polyreactivity
QVQLVESGGGLVQAGGSLRLSCAASGFIFAGYAMGWYRQAPGKERELVAGITRNGGSTYYADSVKGRFTISRDNAKITVYFQMYSLNPEDTAVYYCAATRYSFGPRRVDYWRQGTQVTVSS | high polyreactivity
QVQLVESGGGLVQAGGSLRLSCAASGSIFSRYAMGWYRQAPGKERELVAGISQRGGSTNYADSVKGRFTISRDNAKNTVYLQMNSLKPEDTAVYYCAARRITVWGYNPAYGYRFDYWGQGTQVTVSS | high polyreactivity
QVQLVESGGGLVQAGGSLRLTSAASGRTFGTNPMGWYRQETGKERELVDAISRRGGSTYYADSVKARFTISRDNAKNTVNLQMNSLKPEDTAVYYCAKTIGLKHEDEYWGQGTQVTVSS | low polyreactivity
QVQLVESGGGLVQAGGSLRLRCAASGIIFRGYAMGWYRPAPGKERELVAGITSGGDTNYADSVKGRFTISRDNAKNTVYVQMNSMNPEDTEGYYCATSDRRYRGRHYPFYKFDYWGQGPQVTVSS | low polyreactivity
QVQLVESGGGLVQAGGSLRLSCAASGSIFSSNVMGWYRQAPGKERELVAAITRRGSTTYYADSVKGRFTISRDNAKNTVYLQMNSLKPEDTAVYYCATKAKYGRQYLMDYWGQGTQVTVSS | high polyreactivity
